Measured values: PMC11145253 (Proceedings of the National Academy of Sciences of the …, 2024)

Biological target: T1, CTDNEP1ΔAH as it stands in the crystallized CTDNEP1ΔAH-linker-sNEP1R1-His6 fusion (human, UniProt O95476 40-244)
T1 sequence (looked up): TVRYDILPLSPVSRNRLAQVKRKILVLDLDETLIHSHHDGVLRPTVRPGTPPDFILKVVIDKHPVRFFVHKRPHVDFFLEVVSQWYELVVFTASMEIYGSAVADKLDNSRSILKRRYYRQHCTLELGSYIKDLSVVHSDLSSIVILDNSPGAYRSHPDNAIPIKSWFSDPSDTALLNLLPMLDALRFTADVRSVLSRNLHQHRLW
Assay: crystal structure

B1: linker peptide of the CTDNEP1ΔAH-linker-sNEP1R1-His6 fusion (peptide)
peptide: GSAKGSES
B1: binds.
